The EC50 is the concentration needed to bring the measured effect to its halfway point. Usually Kd stands for the constant that tells how readily two partners part at equilibrium. Higher therefore signals lower affinity.

The record followed here is US20200255529A1 (PIONYR IMMUNOTHERAPEUTICS, published 2020).

Assay [1] concerns the target T1, Fc-tagged recombinant mouse TREM1 (R&D systems #1187-TR) (mouse, UniProt Q9JKE2 21-202).
T1 construct: Bought reagent; not shown: Fc tag
T1 sequence: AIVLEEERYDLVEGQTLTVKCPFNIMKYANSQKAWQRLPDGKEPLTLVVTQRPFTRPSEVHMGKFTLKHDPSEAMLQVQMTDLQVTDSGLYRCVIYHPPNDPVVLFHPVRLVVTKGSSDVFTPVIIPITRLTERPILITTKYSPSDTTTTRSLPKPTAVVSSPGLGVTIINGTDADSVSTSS
Kind of assay: MSD ligand binding PK assay, plate coated with Fc-tagged recombinant mouse TREM1. The method, then:
A 96-well high-binding MSD plate was coated with Fc-tagged recombinant mouse TREM1 (R&D systems #1187-TR). After blocking, samples were added to the plate which bound the TREM1 protein. […] ECL signal was produced by the secondary antibody after the plate received an electric signal from an MSD plate reader. The ECL signal was detected and quantified by the plate reader.

For assay [2], the target named is T2, hCD16 on NFAT-luciferase reporter Jurkat cells (Promega) (human, UniProt P08637 17-254). Kind of assay: cell-based or functional assay.
Assay [3] deals with T3, cynomolgus TREM1 on cells (cynomolgus, UniProt A0A2K5VHG8 21-233).
T3 construct: whole, on cells; Used for HEK293 cells over-expressing cynomolgus TREM1 and for primary cynomolgus monocytes; also called cynoTREM1; Cyno TREM1 cells
T3 sequence: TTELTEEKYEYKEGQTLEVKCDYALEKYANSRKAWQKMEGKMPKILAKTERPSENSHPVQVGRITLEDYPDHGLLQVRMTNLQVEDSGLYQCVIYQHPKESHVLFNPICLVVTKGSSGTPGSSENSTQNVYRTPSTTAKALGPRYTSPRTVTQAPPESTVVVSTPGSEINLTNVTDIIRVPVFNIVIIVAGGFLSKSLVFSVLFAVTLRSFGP
Kind of assay: flow cytometry on HEK293 cells over-expressing cynomolgus TREM1. (In general: Flow cytometry measures light scatter and fluorescence of single cells or particles in a stream.)

Assay [4] deals with T4, Chimeric cynomolgus TREM1-mIgG Fc (cynomolgus, UniProt A0A2K5VHG8 21-204).
T4 construct: not shown: mouse IgG Fc
T4 sequence: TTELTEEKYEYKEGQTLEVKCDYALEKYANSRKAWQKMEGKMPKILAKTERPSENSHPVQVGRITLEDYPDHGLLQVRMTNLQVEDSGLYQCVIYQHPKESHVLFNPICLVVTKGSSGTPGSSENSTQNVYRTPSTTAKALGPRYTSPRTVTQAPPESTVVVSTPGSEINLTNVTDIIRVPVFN
Kind of assay: SPR (Biacore T200), avid format: cynomolgus TREM1-mIgG Fc captured, antibody as analyte. The method, then:
All data were collected at 25° C. 10 mM HEPES pH 7.4, 150 mM NaCl, 3 mM EDTA, 0.05% (v/V) surfactant P20 was used as mobile buffer and for all dilution of mAbs. Anti-mouse Fc was immobilized on a CM4 biosensor chip (GE Healthcare) using amine coupling chemistry. Chimeric cynomolgus TREM1-mIgG Fc was captured on one flow cell and another flow cell (used as reference surface) was left blank. […] After each cycle, the surface was regenerated by injecting a glycine HCl buffer (10 mM, pH 2.0). BIAevaluation software was used to perform the kinetic evaluation. Kinetic evaluation was through generation of sensorgrams which were fitted with a 1:1 Langmuir binding model.
(In general: SPR reads the build-up and loss of mass on a sensor chip optically.)

For assay [5], the target named is T2, hCD16 on NFAT-luciferase reporter …. Kind of assay: cell-based or functional assay. The source holds these as a separate data set.
The target in assay [6] is T3, cynomolgus TREM1 on cells. Kind of assay: flow cytometry on HEK293 cells over-expressing cynomolgus TREM1. This is another data set of the same source.
For assay [7], the target named is T5, mouse TREM1 on HEK293 cells (mouse, UniProt Q9JKE2 21-230).
T5 construct: also called mTREM1; mouse TREM1 over-expressing cells
T5 sequence: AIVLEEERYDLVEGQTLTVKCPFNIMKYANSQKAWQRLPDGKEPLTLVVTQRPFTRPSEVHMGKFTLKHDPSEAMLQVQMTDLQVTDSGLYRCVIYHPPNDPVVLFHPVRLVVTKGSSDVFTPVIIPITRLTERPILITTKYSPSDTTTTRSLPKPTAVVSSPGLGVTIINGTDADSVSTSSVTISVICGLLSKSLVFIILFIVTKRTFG
Kind of assay: flow cytometry on HEK293 cells over-expressing mouse TREM1, Alexa 647 anti-human Fcγ secondary antibody. The method, then:
HEK293 over-expressing cynomolgus or mouse TREM1 in log phase growth were harvested from culture, washed, and plated in 96 well U bottom plates at 1×10⁵ cells/well. […] An Alexa 647-conjugated anti-human Fcγ secondary antibody (Jackson Immunoresearch) diluted at 1:500 was used to detect bound primary antibody. The secondary antibody was incubated with the cells for 30 mins on ice. […] Fluorescence signal from bound antibody was assessed by flow cytometry (ThermoFisher Attune NxT). EC50 values were calculated in Prism Software (Graphpad).

The target of assay [8] is T2, hCD16 on NFAT-luciferase reporter …. Kind of assay: cell-based or functional assay. The source holds these as a separate data set.
Assay [9] has as its target T3, cynomolgus TREM1 on cells. Kind of assay: flow cytometry on cynomolgus peripheral blood monocytes, experiment 1. The method, then:
(§1) Fresh cynomolgus monkey blood (Worldwide Primates Inc) was red cell lysed and washed to enrich PBMC and granulocyte content. Cells were plated and Fc receptors were blocked with a combination of human serum (Jackson Immunoresearch) and a peptide-based FcR block solution (Innovex Biosciences). […] All antibodies used were directly conjugated and data was acquired by flow cytometry (ThermoFisher Attune NxT). EC50 values were calculated in Prism Software (Graphpad).

Assay [10] has as its target T3, cynomolgus TREM1 on cells. Kind of assay: flow cytometry on cynomolgus peripheral blood monocytes, experiment 2. The procedure:
as §1

For assay [11], the target named is T3, cynomolgus TREM1 on cells. Kind of assay: flow cytometry on HEK293 cells over-expressing cynomolgus TREM1, experiment 1. The method, then:
(§2) HEK293 cells over-expressing cynomolgus TREM1 in log phase growth were harvested from culture, washed, and plated in 96 well U bottom plates at 1×10⁵ cells/well. […] An Alexa 647-conjugated anti-human Fcγ secondary antibody (Jackson Immunoresearch) diluted at 1:500 was used to detect bound primary antibody. The secondary antibody was incubated with the cells for 30 mins on ice. […] Fluorescence signal from bound antibody was assessed by flow cytometry (ThermoFisher Attune NxT). EC50 values were calculated in Prism Software (Graphpad).

In assay [12] the target is T3, cynomolgus TREM1 on cells. Kind of assay: flow cytometry on HEK293 cells over-expressing cynomolgus TREM1, experiment 2. The procedure:
as §2

In assay [13] the target is T3, cynomolgus TREM1 on cells. Kind of assay: flow cytometry on HEK293 cells over-expressing cynomolgus TREM1, experiment 3. The method, then:
as §2

Assay [14] deals with T4, Chimeric cynomolgus TREM1-mIgG Fc. Kind of assay: SPR (Biacore T200), avid format: cynomolgus TREM1-mIgG Fc captured, antibody as analyte. This is another data set of the same source.
Assay [15] concerns the target T6, recombinant human His-tagged FcγRI (human, UniProt P12314 16-288).
T6 construct: also called hFcγRI; not shown: His tag
Kind of assay: ELISA on plates coated with 1 ug/ml His-tagged human FcγRI (CD64), detection with HRP-conjugated anti-human F(ab')2. The method, then: 1 ug/ml of the indicated recombinant human His-tagged FcγR proteins (Sino Biologicals) were coated on MaxiSorp plates overnight at 4° c. […] Fc-mediated binding of the antibodies to the coated FcγR proteins was detected with a HRP-conjugated Fab′2 fragment against the Fab′2 portion of human IgG (Jackson Immunoresearch). TMB substrate (ThermoFisher) was used to quantitate the amount of HRP-conjugated secondary reagent bound to primary antibodies and H₃PO₄ was used to stop the reaction. Absorbance at 450 nm was measured using the Spectramax plate reader ([…]).
(In an ELISA, binding on a coated surface is turned into a signal by an enzyme label.)

Assay [16] has as its target T3, cynomolgus TREM1 on cells. Kind of assay: flow cytometry on HEK293 cells over-expressing cynomolgus TREM1; cells overexpressing cynomolgus TREM1; EC50 about 6-fold weaker than parent (4.61 nM).

Like-named read-outs stand apart in the source and are kept apart here.

T2 sequence (P08637 17-254 F176V): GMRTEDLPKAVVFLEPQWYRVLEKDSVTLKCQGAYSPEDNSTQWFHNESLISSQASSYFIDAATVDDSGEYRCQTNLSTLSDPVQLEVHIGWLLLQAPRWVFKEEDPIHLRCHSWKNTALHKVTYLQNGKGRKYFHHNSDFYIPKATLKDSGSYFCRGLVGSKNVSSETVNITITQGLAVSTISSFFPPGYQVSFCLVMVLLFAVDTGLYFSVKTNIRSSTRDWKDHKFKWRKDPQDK
T6 sequence (P12314 16-288 limits assumed): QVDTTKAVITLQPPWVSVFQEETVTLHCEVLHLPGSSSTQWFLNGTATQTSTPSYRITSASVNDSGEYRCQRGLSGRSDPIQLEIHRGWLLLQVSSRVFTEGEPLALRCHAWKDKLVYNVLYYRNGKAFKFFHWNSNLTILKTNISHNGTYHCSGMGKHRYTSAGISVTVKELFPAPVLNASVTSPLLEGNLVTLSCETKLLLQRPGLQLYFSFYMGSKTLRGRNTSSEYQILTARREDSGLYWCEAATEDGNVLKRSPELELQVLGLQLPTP

B1: afucosylated PI-4928 anti-TREM1 antibody (antibody, mouse IgG2a, kappa, V domains shown)
VH: QVQLKESGPGLVQPSQTLSLTCTVSGFSITSSNVYWFRQPPGKGLEWMGNIWGDGSTDYNSSLKSRLTLSRDTSKNQVFLKINSLQSEDTATYFCTRSWEYYFDHWGQGVVVTVSS
VL: DIVLTQSPALAVSPGQRATLSCRASQSVTLSNVNLMNWYQQKPGQQPKLLIYHASNLASGIPTRFSGSGSGTDFTLTIDPVQADDIAAYYCQQSGESPRTFGGGTKVELKR
modifications: afucosylated
notes: Anti-mouse TREM1 surrogate, mIgG2a
B1: in assay [1], the binding result is reported as “binds”.

B2: afucosylated PI-4026-5-M100 (parent) (antibody, human IgG1, kappa)
heavy: not shown
light: DIQLTQSPSSLSASVGDRVTITCSASSSVSYMHWYQQKPGKAPKLLLYTTSNLASGVPSRFSGSGSGTDYTLTISSLQPEDFATYYCHQWSGYPTFGQGTKLEIKRTVAAPSVFIFPPSDEQLKSGTASVVCLLNNFYPREAKVQWKVDNALQSGNSQESVTEQDSKDSTYSLSSTLTLSKADYEKHKVYACEVTHQGLSSPVTKSFNRGEC
modifications: afucosylated Fc glycan (made in FUT8-deficient expi293 cells)
Consider B2, for which the “hCD16 ADCC assay EC50” value in assay [2] is 0.36 nM. Besides, a half-maximal response in [3] (EC50) required 6.61 nM. For the same molecule, binding in assay [4] was put at a Kd of 2.99 nM.

B3: PI-4026-5 (antibody, human IgG1, kappa)
heavy: not shown
light: B2 light
notes: fucosylated form made in expi293 cells
On to B3, for which the “hCD16 ADCC assay EC50” value in [5] came to 2.54 nM. In assay [6], this molecule came in with an EC50 of 4.61 nM. In assay [4], this molecule had a Kd of 1.76 nM. Moreover, the binding result in assay [7] is reported as “no binding (tested: 6 ug/ml)”.

B4: afucosylated PI-4026-5-M100I (antibody, human IgG1, kappa)
heavy: not shown
light: B2 light
modifications: afucosylated Fc glycan (made in FUT8-deficient expi293 cells)
For B4, the “hCD16 ADCC assay EC50” value in assay [2] is 0.39 nM. Also, in [3], a half-maximal effect (EC50) was put at 22 nM. Moreover, the affinity in assay [4], expressed as Kd, was 13.4 nM.

B5: PI64052 (afucosylated PI-4026-5-M100L) (antibody, human IgG1, kappa)
heavy: not shown
light: B2 light
modifications: afucosylated Fc glycan (made in FUT8-deficient expi293 cells)
B5: in assay [2], the “hCD16 ADCC assay EC50” value was 0.28 nM. The “hCD16 reporter assay EC50 (nM), experiment 1” value in assay [8] worked out at 0.09 nM. Besides, the “hCD16 reporter assay EC50 (nM), experiment 2” value in assay [8] stood at 0.28 nM. The “hCD16 reporter assay EC50 (nM), experiment 3” value in [8] was determined as 0.11 nM. Further, the EC50 came to 3.62 nM in assay [3]; 7.84 nM in assay [9]; 7.16 nM in assay [10]; 3.62 nM in assay [11]; 4.67 nM in [12]; 42.8 nM in assay [13]. The Kd in assay [4] and in assay [14] was 1.41 nM in each case. Besides, in assay [15], the binding result is reported as “binds”.

B6: PI-4026-5-M100L (fucosylated) (antibody, human IgG1, kappa)
heavy: not shown
light: B2 light
notes: hIgG1, fucosylated; also called fucosylated parent of PI64052
For B6, the “hCD16 ADCC assay EC50” value in assay [5] amounted to 5.86 nM. For the same molecule, it took 4.85 nM to reach a half-maximal effect in assay [6] (EC50). The molecule further returned a Kd in assay [4] of 1.43 nM. Moreover, in [15], the binding result is “binds”.

B7: afucosylated PI-4026-5-M100E (antibody, human IgG1, kappa)
heavy: not shown
light: B2 light
modifications: afucosylated Fc glycan (made in FUT8-deficient expi293 cells)
Turning to B7, the “hCD16 ADCC assay EC50” value in assay [2] worked out at 0.33 nM. The molecule further showed an EC50 in assay [3] of 56 nM. The molecule further came in with a Kd in [4] of 8.66 nM.

B8: PI64062 (afucosylated PI-4026-5-M100Q) (antibody, human IgG1, kappa)
heavy: not shown
light: B2 light
modifications: afucosylated Fc glycan (made in FUT8-deficient expi293 cells)
Regarding B8, the “hCD16 ADCC assay EC50” value in [2] was found to be 0.29 nM. Moreover, the “hCD16 reporter assay EC50 (nM), experiment 1” value in [8] is 0.08 nM. Further, in assay [8], the “hCD16 reporter assay EC50 (nM), experiment 2” value is 0.29 nM. The “hCD16 reporter assay EC50 (nM), experiment 3” value in assay [8] stood at 0.09 nM. Further, the EC50 in assay [3] worked out at 2.07 nM; in [9] it was 7.94 nM; in assay [10] it was 7.84 nM; in assay [11], 2.07 nM; in assay [12], 3.25 nM; in assay [13], 7.89 nM. Also, the Kd in assay [4] and in [14] was 0.45 nM each time. For the same molecule, the binding result in assay [15] was “binds”.

B9: PI-4026-5-M100I (fucosylated) (antibody, human IgG1, kappa)
heavy: not shown
light: B2 light
Turning to B9, the “hCD16 ADCC assay EC50” value in assay [5] was 6.92 nM. In assay [4], this molecule yielded a Kd of 11.8 nM. For the same molecule, the EC50 in assay [16] turned out to be 28.6 nM.

B10: PI-4026-5-M100Q (fucosylated) (antibody, human IgG1, kappa)
heavy: not shown
light: B2 light
notes: hIgG1, fucosylated; also called fucosylated parent of PI64062
In the case of B10, the “hCD16 ADCC assay EC50” value in assay [5] amounted to 8.6 nM. The molecule further returned an EC50 in [6] of 6.04 nM. The molecule also had a Kd in assay [4] of 0.66 nM. The binding result in [15] was “binds”.
